We go through four sequences from the supplement of paper PMC5998384.

Data set [1] concerns HeLa Kyoto. Kind of data set: solubility in G1/S (NP-40 vs SDS abundance) (log2 ratio); higher = more soluble. As to conditions: cell cycle stage: G1/S.
The test system of data set [2] is HeLa Kyoto. The experiment in a line: solubility change mitosis vs G1/S (difference of NP-40 vs SDS log2 ratios) (log2 ratio difference); higher = more soluble in mitosis.
In data set [3] the test system is HeLa Kyoto. The experiment in a line: melting temperature (median over replicates), in situ; higher = more thermally stable.
For data set [4], the system named is HeLa Kyoto. Kind of data set: thermal stability score vs G1/S (z-score of summed log2 fold changes over temperatures); higher = more thermally stable than in G1/S.
[5] abbreviates: cell cycle stage: early G1 (4.5 h after nocodazole release).
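Wherever melting temperature (median over replicates), in situ is given: HeLa Kyoto cells synchronized by double thymidine or nocodazole block, proteins quantified by TMT10plex mass spectrometry, three independent biological replicates.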
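Wherever solubility change mitosis vs G1/S (difference of NP-40 vs SDS log2 ratios) is given: synchronized HeLa Kyoto cells (double thymidine block for G1/S, nocodazole release for mitosis), protein amounts in NP-40 versus SDS lysates quantified by mass spectrometry, three biological replicates.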
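Wherever solubility in G1/S (NP-40 vs SDS abundance) is given: HeLa Kyoto cells arrested at G1/S by double thymidine block, proteins quantified by TMT10plex mass spectrometry in mild NP-40 versus SDS extracts, three biological replicates.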
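Wherever thermal stability score vs G1/S (z-score of summed log2 fold changes over temperatures) is given: synchronized HeLa Kyoto cells, proteins quantified by TMT10plex mass spectrometry, three biological replicates, mitosis taken 0.5 h after nocodazole release, G1/S directly after double thymidine block.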

For “MPPAVGGPVGYTPPDGGWGWAVVIGAFISIGFSYAFPKSITVFFKEIEGIFHATTSEVSWISSIMLAVMYGGGPISSILVNKYGSRIVMIVGGCLSGCGLIAASFCNTVQQLYVCIGVIGGLGLAFNLNPALTMIGKYFYKRRPLANGLAMAGSPVFLCTLAPLNQVFFGIFGWRGSFLILGGLLLNCCVAGALMRPIGPKPTKAGKDKSKASLEKAGKSGVKKDLHDANTDLIGRHPKQEKRSVFQTINQFLDLTLFTHRGFLLYLSGNVIMFFGLFAPLVFLSSYGKSQHYSSEKSAFLLSILAFVDMVARPSMGLVANTKPIRPRIQYFFAASVVANGVCHMLAPLSTTYVGFCVYAGFFGFAFGWLSSVLFETLMDLVGPQRFSSAVGLVTIVECCPVLLGPPLLGRLNDMYGDYKYTYWACGVVLIISGIYLFIGMGINYRLLAKEQKANEQKKESKEEETSIDVAGKPNEVTKAAESPDQKDTDGGPKEEESPV [SLC16A1]”, the “solubility in G1/S (log2)” value in the data set on HeLa Kyoto [1] was determined as 0.186. In addition, the “solubility change mitosis (log2)” value in the data set on HeLa Kyoto [2] is -0.115. The melting temperature in the data set on HeLa Kyoto [3] (cell cycle stage: G1/S) stood at 55 °C; in the data set with HeLa Kyoto [3] (cell cycle stage: mitosis), 57 °C. For the same sequence, the thermal stability score is -4.15 with HeLa Kyoto [4] (setting [5]) and -10.4 with HeLa Kyoto [4] (cell cycle stage: mitosis).

“MAPPSTREPRVLSATSATKSDGEMVLPGFPDADSFVKFALGSVVAVTKASGGLPQFGDEYDFYRSFPGFQAFCETQGDRLLQCMSRVMQYHGCRSNIKDRSKVTELEDKFDLLVDANDVILERVGILLDEASGVNKNQQPVLPAGLQVPKTVVSSWNRKAAEYGKKAKSETFRLLHAKNIIRPQLKFREKIDNSNTPFLPKIFIKPNAQKPLPQALSKERRERPQDRPEDLDVPPALADFIHQQRTQQVEQDMFAHPYQYELNHFTPADAVLQKPQPQLYRPIEETPCHFISSLDELVELNEKLLNCQEFAVDLEHHSYRSFLGLTCLMQISTRTEDFIIDTLELRSDMYILNESLTDPAIVKVFHGADSDIEWLQKDFGLYVVNMFDTHQAARLLNLGRHSLDHLLKLYCNVDSNKQYQLADWRIRPLPEEMLSYARDDTHYLLYIYDKMRLEMWERGNGQPVQLQVVWQRSRDICLKKFIKPIFTDESYLELYRKQKKHLNTQQLTAFQLLFAWRDKTARREDESYGYVLPNHMMLKIAEELPKEPQGIIACCNPVPPLVRQQINEMHLLIQQAREMPLLKSEVAAGVKKSGPLPSAERLENVLFGPHDCSHAPPDGYPIIPTSGSVPVQKQASLFPDEKEDNLLGTTCLIATAVITLFNEPSAEDSKKGPLTVAQKKAQNIMESFENPFRMFLPSLGHRAPVSQAAKFDPSTKIYEISNRWKLAQVQVQKDSKEAVKKKAAEQTAAREQAKEACKAAAEQAISVRQQVVLENAAKKRERATSDPRTTEQKQEKKRLKISKKPKDPEPPEKEFTPYDYSQSDFKAFAGNSKSKVSSQFDPNKQTPSGKKCIAAKKIKQSVGNKSMSFPTGKSDRGFRYNWPQR [EXOSC10]”: the “solubility in G1/S (log2)” value in the data set with HeLa Kyoto [1] is -0.517. Also, the “solubility change mitosis (log2)” value with HeLa Kyoto [2] is 0.289. For the same sequence, the melting temperature in the data set with HeLa Kyoto [3] (cell cycle stage: G1/S) was found to be 46.6 °C; in the data set on HeLa Kyoto [3] (cell cycle stage: mitosis), 48.7 °C. Besides, the figures for the thermal stability score in the data set on HeLa Kyoto [4] (setting [5]) and in the data set on HeLa Kyoto [4] (cell cycle stage: mitosis) were 4.13 and 7.46, respectively.

With “MAGPELLLDSNIRLWVVLPIVIITFFVGMIRHYVSILLQSDKKLTQEQVSDSQVLIRSRVLRENGKYIPKQSFLTRKYYFNNPEDGFFKKTKRKVVPPSPMTDPTMLTDMMKGNVTNVLPMILIGGWINMTFSGFVTTKVPFPLTLRFKPMLQQGIELLTLDASWVSSASWYFLNVFGLRSIYSLILGQDNAADQSRMMQEQMTGAAMAMPADTNKAFKTEWEALELTDHQWALDDVEEELMAKDLHFEGMFKKELQTSIF [EMC3]”, in the data set with HeLa Kyoto [1], the “solubility in G1/S (log2)” value was -0.174. In addition, the “solubility change mitosis (log2)” value in the data set on HeLa Kyoto [2] is -0.25. In addition, the melting temperature was 54.1 °C with HeLa Kyoto [3] (cell cycle stage: G1/S) and 53.7 °C in the data set with HeLa Kyoto [3] (cell cycle stage: mitosis). Also, the thermal stability score was -0.437 in the data set with HeLa Kyoto [4] (setting [5]) and -0.599 in the data set on HeLa Kyoto [4] (cell cycle stage: mitosis).

For the sequence “MPAVSKGDGMRGLAVFISDIRNCKSKEAEIKRINKELANIRSKFKGDKALDGYSKKKYVCKLLFIFLLGHDIDFGHMEAVNLLSSNKYTEKQIGYLFISVLVNSNSELIRLINNAIKNDLASRNPTFMCLALHCIANVGSREMGEAFAADIPRILVAGDSMDSVKQSAALCLLRLYKASPDLVPMGEWTARVVHLLNDQHMGVVTAAVSLITCLCKKNPDDFKTCVSLAVSRLSRIVSSASTDLQDYTYYFVPAPWLSVKLLRLLQCYPPPEDAAVKGRLVECLETVLNKAQEPPKSKKVQHSNAKNAILFETISLIIHYDSEPNLLVRACNQLGQFLQHRETNLRYLALESMCTLASSEFSHEAVKTHIDTVINALKTERDVSVRQRAADLLYAMCDRSNAKQIVSEMLRYLETADYAIREEIVLKVAILAEKYAVDYSWYVDTILNLIRIAGDYVSEEVWYRVLQIVTNRDDVQGYAAKTVFEALQAPACHENMVKVGGYILGEFGNLIAGDPRSSPPVQFSLLHSKFHLCSVATRALLLSTYIKFINLFPETKATIQGVLRAGSQLRNADVELQQRAVEYLTLSSVASTDVLATVLEEMPPFPERESSILAKLKRKKGPGAGSALDDGRRDPSSNDINGGMEPTPSTVSTPSPSADLLGLRAAPPPAAPPASAGAGNLLVDVFDGPAAQPSLGPTPEEAFLSELEPPAPESPMALLADPAPAADPGPEDIGPPIPEADELLNKFVCKNNGVLFENQLLQIGVKSEFRQNLGRMYLFYGNKTSVQFQNFSPTVVHPGDLQTQLAVQTKRVAAQVDGGAQVQQVLNIECLRDFLTPPLLSVRFRYGGAPQALTLKLPVTINKFFQPTEMAAQDFFQRWKQLSLPQQEAQKIFKANHPMDAEVTKAKLLGFGSALLDNVDPNPENFVGAGIIQTKALQVGCLLRLEPNAQAQMYRLTLRTSKEPVSRHLCELLAQQF [AP2A1]”, the “solubility in G1/S (log2)” value in the data set with HeLa Kyoto [1] was -0.0177. Moreover, in the data set on HeLa Kyoto [2], the “solubility change mitosis (log2)” value was -0.103. Also, the melting temperature was 52 °C with HeLa Kyoto [3] (cell cycle stage: G1/S) and 51.9 °C with HeLa Kyoto [3] (cell cycle stage: mitosis). Further, the figures for the thermal stability score with HeLa Kyoto [4] (setting [5]) and in the data set with HeLa Kyoto [4] (cell cycle stage: mitosis) were 0.878 and 2.23, respectively.
